{"source": "paper doi:10.1101/384248", "binders": {"B1": {"name": "MDMX, O15151 1-490 (natural protein)", "chain": "MTSFSTSAQCSTSDSACRISPGQINQVRPKLPLLKILHAAGAQGEMFTVKEVMHYLGQYIMVKQLYDQQEQHMVYCGGDLLGELLGRQSFSVKDPSPLYDMLRKNLVTLATATTDAAQTLALAQDHSMDIPSQDQLKQSAEESSTSRKRTTEDDIPTLPTSEHKCIHSREDEDLIENLAQDETSRLDLGFEEWDVAGLPWWFLGNLRSNYTPRSNGSTDLQTNQDVGTAIVSDTTDDLWFLNESVSEQLGVGIKVEAADTEQTSEEVGKVSDKKVIEVGKNDDLEDSKSLSDDTDVEVTSEDEWQCTECKKFNSPSKRYCFRCWALRKDWYSDCSKLTHSLSTSDITAIPEKENEGNDVPDCRRTISAPVVRPKDAYIKKENSKLFDPCNSVEFLDLAHSSESQETISSMGEQLDNLSEQRTDTENMEDCQNLLKPCSLCEKRPRDGNIIHGRTGHLVTCFHCARRLKKAGASCPICKKEIQLVIKVFIA"}}, "molecular_target": "p53 (human (endogenous in HCT 116, MCF7, U2OS)), P04637", "sequence (P04637 whole entry)": "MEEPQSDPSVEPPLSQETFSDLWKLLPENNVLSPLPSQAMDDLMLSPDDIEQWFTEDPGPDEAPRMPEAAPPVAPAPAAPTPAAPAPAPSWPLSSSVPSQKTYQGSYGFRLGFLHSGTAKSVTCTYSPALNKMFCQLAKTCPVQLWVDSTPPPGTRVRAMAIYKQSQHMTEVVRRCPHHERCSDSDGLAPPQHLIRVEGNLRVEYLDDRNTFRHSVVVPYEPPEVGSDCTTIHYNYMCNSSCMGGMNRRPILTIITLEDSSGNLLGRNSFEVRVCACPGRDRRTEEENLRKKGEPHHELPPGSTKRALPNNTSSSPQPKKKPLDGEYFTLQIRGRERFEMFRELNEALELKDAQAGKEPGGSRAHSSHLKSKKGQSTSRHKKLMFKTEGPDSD", "assay": "co-IP", "conditions": "remark: other sources report otherwise"}
{"binder": "B1", "values": [{"measurement": "percent decrease of MDMX bound to p53 in cells treated with RITA", "value": 43, "unit": "%"}]}
